T1: biotinylated Avi-tagged RIG-I (Retinoic acid inducible gene-I) (human, UniProt O95786 1-925, biotin on the Avi tag (by BirA))
T1 construct: RIG-I, human, full-length protein; Used alone (apo), pre-incubated with the RNA p3SLR14 (one RIG-I per RNA) or with p3dsRNA24 (two RIG-I per RNA); also called Avi-RIG-I; Apo-RIG-I; source: E. coli Rosetta 2(DE3), purified (Ni-NTA, heparin, SEC), biotinylated by BirA, SEC; not shown: His6, N-terminal, cleaved; SUMO, N-terminal, cleaved
T1 sequence (looked up): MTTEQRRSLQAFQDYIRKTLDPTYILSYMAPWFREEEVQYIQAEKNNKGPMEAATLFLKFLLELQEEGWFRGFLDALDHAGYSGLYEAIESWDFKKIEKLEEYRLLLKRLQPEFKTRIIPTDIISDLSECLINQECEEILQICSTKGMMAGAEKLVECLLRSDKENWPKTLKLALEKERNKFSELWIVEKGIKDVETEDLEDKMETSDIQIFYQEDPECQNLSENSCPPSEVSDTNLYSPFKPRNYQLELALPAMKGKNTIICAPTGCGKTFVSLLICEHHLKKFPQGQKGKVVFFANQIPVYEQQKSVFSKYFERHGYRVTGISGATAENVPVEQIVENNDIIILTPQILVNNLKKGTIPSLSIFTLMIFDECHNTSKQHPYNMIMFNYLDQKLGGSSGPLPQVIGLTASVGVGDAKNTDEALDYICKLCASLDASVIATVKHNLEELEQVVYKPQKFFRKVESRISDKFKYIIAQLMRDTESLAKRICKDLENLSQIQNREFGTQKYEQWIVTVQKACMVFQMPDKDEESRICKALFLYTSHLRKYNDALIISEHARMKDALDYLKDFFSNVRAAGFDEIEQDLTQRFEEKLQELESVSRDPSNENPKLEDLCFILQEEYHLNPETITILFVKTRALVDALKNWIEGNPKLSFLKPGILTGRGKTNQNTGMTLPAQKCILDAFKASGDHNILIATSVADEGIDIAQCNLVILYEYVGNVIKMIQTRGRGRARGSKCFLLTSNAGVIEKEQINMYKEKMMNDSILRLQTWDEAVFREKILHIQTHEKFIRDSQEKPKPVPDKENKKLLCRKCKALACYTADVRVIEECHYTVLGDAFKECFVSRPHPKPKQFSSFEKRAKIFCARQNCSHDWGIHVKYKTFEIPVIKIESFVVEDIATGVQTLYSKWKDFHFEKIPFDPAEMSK


Experiments:
Conditions in all cases: both partners purified
[1] = biological target: T1, biotinylated Avi-tagged RIG-I (Retinoic …); assay: SPR; biotinylated RIG-I pre-incubated with p3SLR14 (1:1.5, 4 °C overnight) immobilised on a streptavidin SADH chip; Riplet constructs as analyte in HBS-EP+, 50 µl/min, dissociation 180 s, OneStep mode, 1:1 model
[2] = biological target: T1, biotinylated Avi-tagged RIG-I (Retinoic …); assay: SPR; biotinylated RIG-I pre-incubated with p3dsRNA24 (2.4:1, 4 °C overnight; two RIG-I per RNA) immobilised on a streptavidin SADH chip; Riplet constructs as analyte in HBS-EP+, 50 µl/min, dissociation 180 s, OneStep mode, 1:1 model
[3] = biological target: T1, biotinylated Avi-tagged RIG-I (Retinoic …); assay: SPR; biotinylated apo-RIG-I (no RNA) immobilised on a streptavidin SADH chip; Riplet constructs as analyte in HBS-EP+, 50 µl/min, dissociation 180 s, OneStep mode, 1:1 model

| Binder | koff [1] [s⁻¹] | kon [1] [M⁻¹ s⁻¹] | koff [2] [s⁻¹] | kon [2] [M⁻¹ s⁻¹] | koff [3] [s⁻¹] | kon [3] [M⁻¹ s⁻¹] | Kd [3] [µM] | Kd [1] [µM] |
| --- | --- | --- | --- | --- | --- | --- | --- | --- |
| Riplet full length (RING finger protein leading to RIG-I activation) (enzyme, human, UniProt Q8IUD6 1-432, looked up, Riplet, human, full length (1-432); also called Riplet-FL; Riplet WT; source: E. coli Rosetta 2(DE3), purified (Ni-NTA, SEC); not shown: His6, N-terminal, cleaved; SUMO, N-terminal, cleaved) MAGLGLGSAVPVWLAEDDLGCIICQGLLDWPATLPCGHSFCRHCLEALWGARDARRWACPTCRQGAAQQPHLRKNTLLQDLADKYRRAAREIQAGSDPAHCPCPGSSSLSSAAARPRRRPELQRVAVEKSITEVAQELTELVEHLVDIVRSLQNQRPLSESGPDNELSILGKAFSSGVDLSMASPKLVTSDTAAGKIRDILHDLEEIQEKLQESVTWKEAPEAQMQGELLEAPSSSSCPLPDQSHPALRRASRFAQWAIHPTFNLKSLSCSLEVSKDSRTVTVSHRPQPYRWSCERFSTSQVLCSQALSSGKHYWEVDTRNCSHWAVGVASWEMSRDQVLGRTMDSCCVEWKGTSQLSAWHMVKETVLGSDRPGVVGIWLNLEEGKLAFYSVDNQEKLLYECTISASSPLYPAFWLYGLHPGNYLIIKQVKV | 0.013 | 19000 | 0.003 | 450000 | 0.0034 | 4600 | – | – |
| Riplet-ΔRING (94-432) (domain or fragment, human, UniProt Q8IUD6 94-432, looked up, Riplet, human, residues 94-432 (CC and PrySpry domains, RING deleted); source: E. coli Rosetta 2(DE3), purified (Ni-NTA, SEC); not shown: His6, N-terminal, cleaved; SUMO, N-terminal, cleaved) AGSDPAHCPCPGSSSLSSAAARPRRRPELQRVAVEKSITEVAQELTELVEHLVDIVRSLQNQRPLSESGPDNELSILGKAFSSGVDLSMASPKLVTSDTAAGKIRDILHDLEEIQEKLQESVTWKEAPEAQMQGELLEAPSSSSCPLPDQSHPALRRASRFAQWAIHPTFNLKSLSCSLEVSKDSRTVTVSHRPQPYRWSCERFSTSQVLCSQALSSGKHYWEVDTRNCSHWAVGVASWEMSRDQVLGRTMDSCCVEWKGTSQLSAWHMVKETVLGSDRPGVVGIWLNLEEGKLAFYSVDNQEKLLYECTISASSPLYPAFWLYGLHPGNYLIIKQVKV | 0.067 | 54000 | 0.0085 | 810000 | 0.073 | 110000 | 0.7 | – |
| Riplet-PrySpry (249-432) (domain or fragment, human, UniProt Q8IUD6 249-432, looked up, Riplet, human, PrySpry domain, residues 249-432; also called Pspry; source: E. coli Rosetta 2(DE3), purified (Ni-NTA, SEC); not shown: His6, N-terminal, cleaved; SUMO, N-terminal, cleaved) RRASRFAQWAIHPTFNLKSLSCSLEVSKDSRTVTVSHRPQPYRWSCERFSTSQVLCSQALSSGKHYWEVDTRNCSHWAVGVASWEMSRDQVLGRTMDSCCVEWKGTSQLSAWHMVKETVLGSDRPGVVGIWLNLEEGKLAFYSVDNQEKLLYECTISASSPLYPAFWLYGLHPGNYLIIKQVKV | 0.18 | 51000 | 0.19 | 130000 | 0.18 | 60000 | 3.1 | 3.6 |

From article PMC10640585, “The E3 ligase Riplet promotes RIG-I signaling independent of RIG-I oligomerization” (Nature Communications, 2023)
